What was measured:
[1] = target: T1, human MDR1 (Homo sapiens, UniProt P08183); test: Antibody binding/titration to 293T cells overexpressing human MDR1 (FACS); details: 293T cell line overexpressing human MDR1
T1 construct: expressed in transfected cells
Protocol: Antibody binding to cells was evaluated by flow cytometry. 293T cells stably transfected to express human ABCB1 (293T_KPB1_OX) were washed once in flow cytometry buffer (PBS + 2% FBS + 0.02% sodium azide), resuspended at 2 x 10 \^6 cells/mL in flow cytometry buffer, and dispensed into 96-well microtiter plates at 0.1 mL/well. In the figures, “B1” refers to ABCB1 (also known as MDR1 or Pgp). Recombinant antibodies were added to cells at 5 ug/mL for initial binding confirmation, or serially diluted from 100 ug/mL in flow cytometry buffer. After incubating cells on ice for 30 min, cells were washed twice with flow cytometry buffer. Bound antibody was detected with PE-labeled F(ab′)2 fragment goat anti-human IgG (Jackson ImmunoResearch) and evaluated on an Attune NxT flow cytometer.
Binding titration of recombinant antibodies to ABCB1 transfectants was performed by 3-fold serial dilution of antibodies from 666.7 nM. Diluted antibody in flow cytometry buffer was incubated with cells on ice for 30 min. After 2 washes with flow cytometry buffer, bound antibody was detected with PE-labeled F(ab′)2 fragment goat anti-human IgG (Jackson ImmunoResearch) diluted 1:200 in flow cytometry buffer and incubated with cells for 20 min on ice. After 2 washes with flow cytometry buffer fluorescence was measured on an Attune NxT flow cytometer. Data were analyzed with GraphPad Prism 8.0 software to determine EC50′s.
(§1) Anti-MDR1 mAb B1.129 and a humanized version thereof were assessed for binding to 293T cell line overexpressing human MDR1 or to 293T cells transfected with cynomolgus MDR1. […] B1.129.hz1 and B1.129.hz2 antibodies are the same as the humanized versions B1.129.huH1-huL1(KV3) and B1.129.huH1-huL1(KV1), respectively, listed in Table 2. FIG. 10C summarizes the binding data for the B1.129 antibody.

[2] = test system: cynomolgus MDR1; test: Antibody binding to 293T cells transfected with cynomolgus MDR1
Protocol: as §1
Anti-MDR1 mAb B1.28 and a humanized version thereof were assessed for binding to 293T cell line overexpressing human MDR1 or to 293T cells transfected with cynomolgus MDR1.

[3] = test system: A2780 ADR ovarian carcinoma; test: A2780 ADR drug-resistant ovarian carcinoma model in nude mice; assay type: in vivo; details: for tumor volume, single agent: antibody as a single agent; for tumor volume, in combination with paclitaxel: antibody plus paclitaxel
Protocol: (§2) Anti-ABCB1 antibodies B1.129, B1.261, B1.223, B1.225, B1.188, B1.28, and B1.226 were tested for effect on growth of tumors in immunodeficient mice. The following cancer cell lines were used for generating tumor models.
A2780 ADR: The adriamycin-resistant cell line A2780ADR has been developed by exposure of the parent A2780 cell line (Sigma catalogue no. 93112519) to adriamycin. A2780ADR is cross-resistant to melphalan and vinblastine. To retain resistance adriamycin has to be added to the media. The cells grow as a monolayer and in suspension in spinner cultures and are tumorigenic in immune deficient mice. Together with the cisplatin-resistant variant A2780cis these lines only differ in their exposure to a single drug and should facilitate the search for molecular changes responsible for the expression of pleiotropic drug resistance in human ovarian cancer.
Nude mice were implanted with A2780 ADR cells to model ovarian carcinoma. Anti-B1 monoclonal antibodies are efficacious in A2780 ADR ovarian carcinoma model in nude mice.

[4] = test system: MES-SA DX5 uterine sarcoma; test: MES-SA DX5 drug-resistant uterine sarcoma model in nude mice; assay type: in vivo
Protocol: as §2
MES-SA DX5: The multi drug-resistant cell line MES-SA/Dx5 (Sigma. 95051031) was derived from the human uterine sarcoma cell line MES-SA (Sigma Catalogue number. 95051030) which was originally obtained from a tumour from a person at the time of hysterectomy. […] Cross resistance to bleomycin, cisplatin, carmustine, 5-fluorouracil or methotrexate was not observed.
Nude mice were implanted with MES-SA DX5 cells to model uterine sarcoma. Anti-B1 monoclonal antibodies are efficacious in MES-SA DX5 uterine sarcoma model in nude mice.

cynomolgus MDR1, sequence (as listed by the source): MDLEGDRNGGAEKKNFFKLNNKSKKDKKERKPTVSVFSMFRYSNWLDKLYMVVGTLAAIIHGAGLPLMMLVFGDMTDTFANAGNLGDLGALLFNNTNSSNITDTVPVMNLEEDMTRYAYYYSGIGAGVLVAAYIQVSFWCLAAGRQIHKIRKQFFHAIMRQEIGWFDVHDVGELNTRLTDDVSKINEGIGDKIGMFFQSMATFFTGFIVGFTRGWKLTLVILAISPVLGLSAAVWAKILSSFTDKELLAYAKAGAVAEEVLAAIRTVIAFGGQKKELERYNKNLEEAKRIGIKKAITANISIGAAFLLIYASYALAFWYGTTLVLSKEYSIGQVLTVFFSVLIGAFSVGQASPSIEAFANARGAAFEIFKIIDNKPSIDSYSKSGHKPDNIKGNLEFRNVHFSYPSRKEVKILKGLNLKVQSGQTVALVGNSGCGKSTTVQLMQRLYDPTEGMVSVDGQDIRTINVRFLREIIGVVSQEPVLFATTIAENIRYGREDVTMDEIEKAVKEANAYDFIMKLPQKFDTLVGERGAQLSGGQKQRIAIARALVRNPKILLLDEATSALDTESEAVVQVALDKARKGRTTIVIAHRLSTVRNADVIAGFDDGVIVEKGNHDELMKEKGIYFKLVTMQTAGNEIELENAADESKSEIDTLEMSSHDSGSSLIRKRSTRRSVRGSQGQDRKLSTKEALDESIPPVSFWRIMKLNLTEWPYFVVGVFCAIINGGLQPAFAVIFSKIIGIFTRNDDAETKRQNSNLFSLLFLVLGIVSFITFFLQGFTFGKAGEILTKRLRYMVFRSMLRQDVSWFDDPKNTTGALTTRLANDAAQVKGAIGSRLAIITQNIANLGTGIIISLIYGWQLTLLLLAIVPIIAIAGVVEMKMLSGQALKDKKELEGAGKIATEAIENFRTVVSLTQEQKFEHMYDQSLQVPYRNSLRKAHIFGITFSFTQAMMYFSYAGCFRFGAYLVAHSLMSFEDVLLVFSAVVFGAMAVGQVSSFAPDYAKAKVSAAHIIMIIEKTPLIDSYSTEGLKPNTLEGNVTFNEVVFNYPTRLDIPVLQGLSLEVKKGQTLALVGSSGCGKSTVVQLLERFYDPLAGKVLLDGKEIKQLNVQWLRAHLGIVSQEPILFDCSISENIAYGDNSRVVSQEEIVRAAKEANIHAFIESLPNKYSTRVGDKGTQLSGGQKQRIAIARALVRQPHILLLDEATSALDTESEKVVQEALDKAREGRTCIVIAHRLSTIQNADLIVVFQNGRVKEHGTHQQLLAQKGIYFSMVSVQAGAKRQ

B1: B1.28: anti-MDR1 antibody, Mouse; VH SEQ ID NO:14, VL SEQ ID NO:18 (antibody, listed as Mus musculus, V domains shown)
VH: EVKLVESGGGLVKPGGSLKLSCAASGFTFGLYTMSWVRQTPERRLEWVATISSGGSNTYYPDSVKGRFTISRDNAKNNLFLQMNSLRSEDTALYYCARYYRYDAWFAYWGQGTLVTVSS
VL: DVLLTQTPLSLPVSLGDQASISCRSSQNIVHSTGNTYLDWYLQKPGQSPKLLIYKVSNRFSGVPDRFSGSGSGTDFTLKISRVEAEDLGVYFCFQGSHIPRTFGGGTKLEIK
binding to human MDR1 (hB1) [1]: binds to both hB1 and cB1 | binding to cynomolgus MDR1 (cB1) [2]: binds to both hB1 and cB1 | tumor volume, single agent [3]: decreased tumor volume | tumor volume, in combination with paclitaxel [3]: decreased tumor volume

B2: B1.129.huH1-huL1(KV3): humanized B1.129; VH SEQ ID NO:63, VL SEQ ID NO:64 (antibody, V domains shown)
VH: EVQLVQSGAEVKKPGASVKVSCKASGYTFSTYVIHWVRQAPGQGLEWIGYIYPYNDYTKYNEKFKDRATLTSDKSTSTAYMELRSLRSDDTAVYYCSRAYYGNLVGYGVDYWGQGTTVTVSS
VL: EIVLTQSPATLSLSPGERATLSCRASSSVSFIYWYQQKPGQSPRPWIFATSNLASGVPARFSGSGSGTDYTLTISSLEPEDFAVYYCHQWGSNLPTFGGGTKLEIK
modifications: humanized sequence
binding to human MDR1 (hB1) [1]: binds to both hB1 and cB1 with a lower affinity | binding to cynomolgus MDR1 (cB1) [2]: binds to both hB1 and cB1 with a lower affinity

B3: B1.129.huH1-huL1(KV1): humanized B1.129; VH SEQ ID NO:63, VL SEQ ID NO:65 (antibody, V domains shown)
VH: EVQLVQSGAEVKKPGASVKVSCKASGYTFSTYVIHWVRQAPGQGLEWIGYIYPYNDYTKYNEKFKDRATLTSDKSTSTAYMELRSLRSDDTAVYYCSRAYYGNLVGYGVDYWGQGTTVTVSS
VL: DIQLTQSPSSLSASVGDRVTITCRASSSVSFIYWYQQKPGKSPKPWIFATSNLASGVPSRFSGSGSGTDYTLTISSLQPEDFATYYCHQWGSNLPTFGGGTKLEIK
modifications: humanized sequence
binding to human MDR1 (hB1) [1]: did not show significant binding | binding to cynomolgus MDR1 (cB1) [2]: did not show significant binding

B4: B1.261: anti-MDR1 antibody, Mouse; VH SEQ ID NO:118, VL SEQ ID NO:122 (antibody, listed as Mus musculus, V domains shown)
VH: QVQLKESGPGLVAPSQSLSITCTVSGFSLTSYGVHWVRQPPGKGLEWLVVIWSDGSTTYNSALKSRLSISKDNSKSQVFLKMNSLQIDDTAMYYCARHGRWLLQRGGAMDYWGQGTSVTVSS
VL: DVVMTQAPKFMSTSVGDRVSVTCRASQNVGSYIAWYQQKLGQSPKALIYSASYRCSGVPDRFTGSGAGTDFTLTIRNVQSEDLAEYFCQQYNSYPLTFGGGTKLEIK
binding to human MDR1 (hB1) [1]: bind to hB1 and cB1 | binding to cynomolgus MDR1 (cB1) [2]: bind to hB1 and cB1 | tumor volume, single agent [3]: decreased tumor volume | tumor volume, in combination with paclitaxel [3]: decreased tumor volume | tumor volume / tumor growth, single agent ([4]; MES-SA DX5, nude mice, antibody as a single agent): decreased tumor volume | tumor volume / tumor growth, in combination with paclitaxel ([4]; MES-SA DX5, nude mice, antibody plus paclitaxel): decreased tumor volume | sensitization of MES-SA DX5 uterine sarcoma to paclitaxel ([4]; MES-SA DX5 tumors in vivo): sensitized
